{
  "source": "paper doi:10.1101/2023.01.09.523197",
  "about": "(bioRxiv, 2023)",
  "proteins": {"B1": {"name": "Saccharopolyspora erythraea GlnR-DBD (domain or fragment)", "chain": "DGMLTVGDLVIEESTYTARLKGRALELTYKEFELLKYLAQHAGRVFTRAQLLQEVWGYDFFGGTRTVDVHVRRLRAKLGPEYDSMIGTVRNVGYKFVRPS"}},
  "target": "the molecule itself",
  "assay": "crystal structure",
  "data": [
    {"protein": "B1", "values": [
      {"measurement": "binding result", "value": "binds"}
    ]}
  ]
}
